Experimental findings from US20070099830A1 (MIT, published 2007) are described below.

In the assay the target is T1, glutamate dehydrogenase (endogenous, 293T cells) (human, UniProt P00367 54-558, ADP-ribosylated (32P-labelled) in the mitochondrial labelling experiments; site not stated).
T1 construct: Endogenous protein in 293T lysate or mitochondria; also called GDH
Nature of the assay: anti-FLAG immunoprecipitation from 32P-NAD labelled mitochondria of 293T cells overexpressing Sirt4-FLAG, autoradiography. The procedure:
FIG. 5. Glutamate dehydrogenase is ADP-ribosylated in vivo and interacts with Sirt4. FIG. 5A. Mitochondria (50 mg) from 293T cells were incubated with [³²P]-NAD at 37° C. for 30 min. Proteins were separated by SDS-PAGE, transferred to a nitrocellulose membrane, and radioactivity was measured by exposure to film. FIG. 5B. Mitochondrial proteins were ADP-ribosylated as described for FIG. 5A, and lysis was performed in NP-40 buffer containing 10 mM DTT and 0.5 mM EDTA. Clarified lysate was incubated with protein A resin that had been pre-incubated with antibodies against hSirt4, ANT or glutamate dehydrogenase (GDH). FIG. 5C. 293T cells were transiently transfected with 10 μg of pCMV (V) or phSirt4-FLAG (4). Cells were harvested and lysed in NP-40 buffer containing protease inhibitors and 1 mM DTT. […] An endogenous interaction between Sirt4 and glutamate dehydrogenase was determined in MIN6 cells. […] Proteins were separated by SDS-PAGE, transferred to nitrocellulose membrane, and the radioactivity was measured by exposure to x-ray film.
Mitochondria from 293T control or Sirt4-FLAG overexpressing cells were incubated with [³²P]-NAD, and the ADP-ribosylation state of glutamate dehydrogenase was measured by immunoprecipitation and subsequent autoradiography. […] Moreover, a small amount of labeled glutamate dehydrogenase could be detected in a complex with Sirt4 (FIG. 5E).

T1 sequence (P00367 54-558): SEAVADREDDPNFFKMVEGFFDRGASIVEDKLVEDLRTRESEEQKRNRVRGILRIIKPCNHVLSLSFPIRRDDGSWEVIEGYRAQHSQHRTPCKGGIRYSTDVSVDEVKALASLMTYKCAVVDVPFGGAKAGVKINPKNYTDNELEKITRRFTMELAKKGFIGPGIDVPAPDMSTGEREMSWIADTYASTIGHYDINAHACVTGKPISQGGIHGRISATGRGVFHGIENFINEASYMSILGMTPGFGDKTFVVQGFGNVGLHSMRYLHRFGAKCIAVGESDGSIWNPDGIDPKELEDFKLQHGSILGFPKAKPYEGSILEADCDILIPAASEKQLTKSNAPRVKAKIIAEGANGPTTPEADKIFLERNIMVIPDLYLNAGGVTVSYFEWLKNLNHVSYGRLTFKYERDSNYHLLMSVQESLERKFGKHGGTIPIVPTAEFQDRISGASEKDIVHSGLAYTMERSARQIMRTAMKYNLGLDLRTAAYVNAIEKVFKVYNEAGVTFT

B1: human Sirt4 with a C-terminal FLAG (enzyme)
chain: IGLFVPASPPLDPEKVKELQRFITLSKRLLVMTGAGISTESGIPDYRSEKVGLYARTDRRPIQHGDFVRSAPIRQRYWARNFVGWPQFSSHQPNPAHWALSTWEKLGKLYWLVTQNVDALHTKAGSRRLTELHGCMDRVLCLDCGEQTPRGVLQERFQVLNPTWSAEAHGLAPDGDVFLSEEQVRSFQVPTCVQCGGHLKPDVVFFGDTVNPDKVDFVHKRVKEADSLLVVGSSLQVYSGYRFILTAWEKKLPIAILNIGPTRSDDLACLKLNSRCGELLPLIDPC
notes: Overexpressed in 293T cells from phSirt4FLAG; Used in cell lysate or immunoprecipitated and eluted with FLAG peptide; also called hSirt4-FLAG; Sirt4-FLAG; not shown: C-terminal FLAG tag from vector pCMV-FLAG-4A
B1: the binding result is given as “binds”.
